US9266930

T1: HLA-DR7 (DRB1*0701) (human)
T1 chain 1: not shown
T1 chain 2: not shown

T2: HLA-DR8w2 (DRB1*0802) (human)
T2 chain 1: not shown
T2 chain 2: not shown

T3: HLA-DR5w12 (DRB1*1201) (human)
T3 chain 1: not shown
T3 chain 2: not shown


molecular target: HLA-DR4w15 (DRB1*0405) (human); assay: not given; conditions: not given

Binder	binding affinity ratio (IC50 of standard peptide / IC50 of test peptide)
KYLVIVFLIFFDLFL (modifications not checked)	-0.003

molecular target: HLA-DR5w11 (DRB1*1101) (human); assay: not given; conditions: not given

Binder	binding affinity ratio (IC50 of standard peptide / IC50 of test peptide)
KYLVIVFLIFFDLFL (modifications not checked)	-0.0009
AGGIAGGLALLACAG (modifications not checked)	-0.0002
VVILTDGIPDSIQDS (modifications not checked)	-0.0004
MKILSVFFLALFFII (modifications not checked)	-0.001
AVPLAMKLIQQLNLN (modifications not checked)	0.0002

molecular target: HLA-DR2w2β2 (DRB5*0101) (human); assay: not given; conditions: not given

Binder	binding affinity ratio (IC50 of standard peptide / IC50 of test peptide)
KYLVIVFLIFFDLFL (modifications not checked)	-0.002
VVILTDGIPDSIQDS (modifications not checked)	-0.0006
MKILSVFFLALFFII (modifications not checked)	-0.0021
AVPLAMKLIQQLNLN (modifications not checked)	-0.0006

molecular target: HLA-DR1 (DRB1*0101) (human); assay: not given; conditions: not given

Binder	binding affinity ratio (IC50 of standard peptide / IC50 of test peptide)
VVILTDGIPDSIQDS (modifications not checked)	0.0001

molecular target: HLA-A*1101 (human); assay: not given; conditions: not given

Binder	binding affinity ratio (IC50 of standard peptide / IC50 of test peptide)
QCEEERCPPK (modifications not checked) [… (Pf SSP2 280)]	0.0002
QGINVAFNR (modifications not checked) [… (Pf SSP2 192)]	0.078
PDSIQDSLK (modifications not checked) [… (Pf SSP2 165)]	0.0002
NSEDRETRPH (modifications not checked) [… (Pf SSP2 448)]	0.0002
QDSLKESRK (modifications not checked) [… (Pf SSP2 169)]	0.0002
PSPNPEEGK (modifications not checked) [… (Pf SSP2 328)]	0.0002
QSQDNNGNR (modifications not checked) [… (Pf SSP2 436)]	0.0002

same assay, conditions: scale: ratio

Binder	binding affinity ratio (relative to standard peptide)
IFNKESLAEK (modifications not checked) [Pf EXP peptide … (position 15)]	0.0003
GVSSKKKNK (modifications not checked)	0.0002
KGTGSGVSSK (modifications not checked) [Pf EXP peptide … (position 27)]	0.0009
GVSSKKKNKK (modifications not checked)	0.0002
HDLISDMIK (modifications not checked)	0.0002
HDLISDMIKK (modifications not checked)	0.0002

molecular target: HLA-A*0201 (Human); assay: not given; conditions: not given

Binder	binding affinity ratio (IC50 of standard peptide / IC50 of test peptide)
LLMDCSGSI (modifications not checked) [… (Pf SSP2 51, 9-mer A02 supermotif peptide)]	0.046
LIFFDLFLV (modifications not checked) [… (Pf SSP2 15, 9-mer A02 supermotif peptide)]	0.089
IVFLIFFDL (modifications not checked) [… (Pf SSP2 12, 9-mer A02 supermotif peptide)]	0.0024
VIVFLIFFDL (modifications not checked) [SSP2 11 …]	0.0038
GIAGGLALL (modifications not checked) [… (Pf SSP2 503, 9-mer)]	0.0022
SAWENVKNV (modifications not checked) [SSP2 218 …]	0.0019
VIGPFMKAV (modifications not checked) [SSP2 226 …]	0.0004
GLALLACAGL (modifications not checked) [… (Pf SSP2 507, 10-mer)]	0.017
LLGGVGLVL (modifications not checked) [… (EXP position 92, 9 amino acids)]	0.0038
YLLMDCSGSI (modifications not checked) [SSP2 50 …]	0.17
SVFFLALFFI (modifications not checked) [… (P. falciparum EXP-1, position 5, 10 amino acids)]	0.0017
HLGNVKYLV (modifications not checked) [… (Pf SSP2 3, 9-mer)]	0.0017
VLLGGVGLV (modifications not checked) [… (P. falciparum EXP-1, position 91, 9 amino acids)]	0.029

Molecular target: T1, HLA-DR7 (DRB1*0701) (human)
Assay: not given
Conditions: not given

Binder	binding affinity ratio (IC50 of standard peptide / IC50 of test peptide)
LIFFDLFLVNGRDVQ (modifications not checked) [… (Pf SSP2 15)]	0.047
VKYLVIVFLIFFDLF (modifications not checked) [… (Pf SSP2 7)]	0.001
CVEVEKTASCGVWDE (modifications not checked) [… (Pf SSP2 235)]	0.0095

Molecular target: T2, HLA-DR8w2 (DRB1*0802) (human)
Assay: not given
Conditions: not given

Binder	binding affinity ratio (IC50 of standard peptide / IC50 of test peptide)
CVEVEKTASCGVWDE (modifications not checked) [… (Pf SSP2 235)]	0.0005

Molecular target: T3, HLA-DR5w12 (DRB1*1201) (human)
Assay: not given
Conditions: not given

Binder	binding affinity ratio (IC50 of standard peptide / IC50 of test peptide)
CVEVEKTASCGVWDE (modifications not checked) [… (Pf SSP2 235)]	0.0001

molecular target: HLA-A*1101 (purified HLA class I molecule) (human); assay: competition with a 125I-labelled probe peptide for purified HLA-A*1101; conditions: not given

Binder	binding affinity ratio (IC50 of standard peptide / IC50 of test peptide)
SIQDSLKESR (modifications not checked) [… (Pf SSP2 167, 10-mer)]	0.0009
YADSAWENVK (modifications not checked) [… (Pf SSP2 215, 10-mer)]	0.0002
WSPCSVTCGK (modifications not checked) [… (Pf SSP2 250, 10-mer)]	0.0002
SIRRHNWVNH (modifications not checked) [… (Pf SSP2 58, 10-mer)]	0.0002
VVPGAATPY (modifications not checked) [… (Pf SSP2 521, 9-mer)]	0.0002
QVRKHLNDR (modifications not checked) [… (Pf SSP2 139, 9-mer)]	0.0002
VGCHPSDGK (modifications not checked) [… (Pf SSP2 203, 9-mer)]	0.0003
SLLSTNLPY (modifications not checked) [… (Pf SSP2 120, 9-mer)]	0.0046
QSQDNNGNRH (modifications not checked) [… (Pf SSP2 436, 10-mer)]	0.0002
RSRKREILH (modifications not checked) [… (Pf SSP2 262, 9-mer)]	0.0002
